# Test results as given in patent US9732156B2, “Methods of treating rheumatoid arthritis using antibodies to matrix metalloproteinase 9” (Gilead Biologics, Inc., priority 2012, dated 2017).
# B1: AB0041: mouse monoclonal antibody to human MMP9, mouse IgG2b heavy chain (SEQ ID NO: 1) and mouse kappa light chain (SEQ ID NO: 2) (antibody, listed as Mus musculus)
# heavy: MAVLVLFLCLVAFPSCVLSQVQLKESGPGLVAPSQSLSITCTVSGFSLLSYGVHWVRQPPGKGLEWLGVIWTGGTTNYNSALMSRLSISKDDSKSQVFLKMNSLQTDDTAIYYCARYYYGMDYWGQGTSVTVSSAKTTPPSVYPLAPGCGDTTGSSVTLGCLVKGYFPESVTVTWNSGSLSSSVHTFPALLQSGLYTMSSSVTVPSSTWPSQTVTCSVAHPASSTTVDKKLEPSGPISTINPCPPCKECHKCPAPNLEGGPSVFIFPPNIKDVLMISLTPKVTCVVVDVSEDDPDVRISWFVNNVEVHTAQTQTHREDYNSTIRVVSALPIQHQDWMSGKEFKCKVNNKDLPSPIERTISKIKGLVRAPQVYILPPPAEQLSRKDVSLTCLVVGFNPGDISVEWTSNGHTEENYKDTAPVLDSDGSYFIYSKLDIKTSKWEKTDSFSCNVRHEGLKNYYLKKTISRSPGK
# light: MESQIQVFVFVFLWLSGVDGDIVMTQSHKFMSTSVGDRVSITCKASQDVRNTVAWYQQKTGQSPKLLIYSSSYRNTGVPDRFTGSGSGTDFTFTISSVQAEDLAVYFCQQHYITPYTFGGGTKLEIKRADAAPTVSIFPPSSEQLTSGGASVVCFLNNFYPKDINVKWKIDGSERQNGVLNSWTDQDSKDSTYSMSSTLTLTKDEYERHNSYTCEATHKTSTSPIVKSFNRNEC
# modifications: CHAIN (1)...(470) AB0041 heavy chain; CHAIN (1)...(234) AB0041 light chain
# Tests used:
# [1] = system: lipopolysaccharide (LPS)-induced animal death; assay: LPS-induced septicemia model; assay type: in vivo, rat; conditions: after four days
# adjuvant arthritis (AIA) = assay: Adjuvant-induced arthritis (AIA) rat model of established disease; conditions: in vivo
# Source text: The anti-MMP9 antibody, AB0041, was efficacious in treating both inflammation and joint damage in both adjuvant and collagen-induced arthritis (AIA, CIA) rat rheumatoid arthritis models of established disease.
# MMP9 = MMP9 (Homo sapiens, UniProt P14780); assay: Comparison of binding and inhibitory properties of anti-MMP9 antibodies; conditions: AB0045 compared with AB0041
# Chain of MMP9 (P14780 94-707, species assumed): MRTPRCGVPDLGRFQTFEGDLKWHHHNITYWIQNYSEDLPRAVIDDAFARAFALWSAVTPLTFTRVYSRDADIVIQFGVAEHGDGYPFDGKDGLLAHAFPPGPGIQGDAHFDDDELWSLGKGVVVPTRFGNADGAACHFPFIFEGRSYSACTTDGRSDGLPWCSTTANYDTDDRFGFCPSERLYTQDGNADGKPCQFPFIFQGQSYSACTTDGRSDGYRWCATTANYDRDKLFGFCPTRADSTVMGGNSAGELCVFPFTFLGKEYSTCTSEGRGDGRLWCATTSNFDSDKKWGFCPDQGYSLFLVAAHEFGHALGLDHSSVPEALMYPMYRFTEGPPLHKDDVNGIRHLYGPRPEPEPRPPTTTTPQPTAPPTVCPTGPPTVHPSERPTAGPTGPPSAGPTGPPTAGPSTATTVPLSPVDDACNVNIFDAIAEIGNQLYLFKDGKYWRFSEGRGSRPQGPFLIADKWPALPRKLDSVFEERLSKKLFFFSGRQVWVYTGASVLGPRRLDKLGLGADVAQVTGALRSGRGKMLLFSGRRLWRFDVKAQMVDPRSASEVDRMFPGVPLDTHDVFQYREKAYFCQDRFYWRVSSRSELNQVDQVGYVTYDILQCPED
# Lewis rats = conditions: rat, in vivo
# Experimental: AB0041 was evaluated for safety in Lewis rats in comparison to the pan-MMP inhibitor, Marimastat, in a 28-day study.
# Six rats per group were intravenously administered twice per week with either AB0041 at 50 mg/kg or Vehicle-A (10 mM sodium phosphate, pH 6.5, 140 mM sodium chloride, 0.01% Tween20). In addition, six rats per group were treated with Marimastat or Vehicle-M (50% DMSO/50% water) through a surgically implanted subcutaneous Alzet pump (Alzet, Cupertino, Calif.), which delivered at a rate of 2.5 μl/hour for a period of 28 days. The Marimastat release rate was between 6.8 to 5.7 mg/kg/day.
# Animals were observed and scored daily for signs of MSS, such as reluctance to move and avoidance of the use of the hind feet. The following system was used to score resting posture, gait and willingness to move: resting posture was scored as 0 (normal), 1 (resting on one foot) or 2 (resting on neither one foot nor two feet). Gait was scored as either 0 (normal), 1 (avoids use of one hind foot) or 2 (avoids use of both hind feet). Willingness-to-move upon stimulation was scored as either 0 (normal movement), 1 (somewhat reluctant to move), 2 (moderately reluctant to move) or 3 (very reluctant to move). In addition, the body weights were recorded twice weekly.
# Total scores were calculated as the sum of gait score, resting posture score and willingness-to-move score for each animal. Mean total scores per group were calculated as the average of the total scores from all individual animals per group per day.
# Serum was collected from all rats on one day before and days 1, 7, 10, 14, 17, 21, 24, 28 post administration. Serum was centrifuged at 10,000×g for 10 minutes and collected for storage at −20° C. Serum was subject to multianalyte serum protein analysis (RodentMAPv2.0, IDEXX Laboratories).
# Tissues and limbs from the rats were harvested and fixed in 10% neutral buffered formalin for histopathologic analysis using hematoxylin and eosin (H&E).
# CD4+ T cell = assay: EpiScreen ex vivo human T cell activation assay (immunogenicity); assay type: cell-based
# Experimental: The potential clinical immunogenicity of the chimeric MMP9 antibody AB0041 and the humanized MMP9 antibody AB0045 was assessed. An ex vivo human T cell activation assay, the EpiScreen (Antitope, Ltd., Cambridge, UK) was used. The T cell activation in the EpiScreen assay has been correlated to the antibody/protein therapeutic responses in patients. The response of CD4+ T cell in 20 healthy donors, representing a variety of HLA haplotypes, was examined. […] A positive control of KLH induced a response in 95% of the donors, with a magnitude of 6.34+/−2.77 (mean+/−standard deviation).
# [2] = system: collagen-induced arthritis; assay: Collagen-induced arthritis (CIA) rat model of established disease; assay type: in vivo
# Experimental: This example provides additional characterizations of the animals in example 7 that were treated with either vehicle, AB0041 (in the rat model) or AB0046 (in the mouse model) at 2, 10, or 50 mg/Kg, Enbrel at 10 mg/Kg, or methotrexate (MTX) at 0.5 mg/Kg.
# In addition to clinical scoring in Table 6 that was conducted in example 7, paw swelling, ankle diameter and body weights of the treated animals were measured. The measurements were conducted once a week before randomization and three times a week thereafter.
# In addition, hind limbs were examined microscopically for soft-tissue changes (edema, tissue/vessel necrosis, inflammatory cell infiltration, and fibroplasias) and cartilage and bone changes (cartilage erosion, bone erosion, periosteal bone formation, synovitis, pannus formation, and joint destruction). […] The severity scores were based on global changes in each limb.
# For anti-TNF-alpha scoring, the entire region of the limb anterior to the tarsal-metatarsal joint was scored. Anti-CD68 staining was evaluated using 3-4 images per limb of synovial membranes in the joints formed by the talus bone, with the scores of each membrane averaged and the value assigned as the overall inflammation score. […] Also, MMP9-expressing cells were identified as osteoclasts and cells of the monocyte/macrophage lineage.
# Further, serum panel analyses of terminal serum samples were characterized using ELISA. […] AB0046 titers were measured in terminal serum samples.
# [3] = AB0041 serum levels by indirect binding ELISA in the MSS study; assay type: in vivo, rat; conditions: Day 0 to Day 28; 50 mg/kg IV twice per week
# Experimental: Levels of AB0041 in rat serum were measured by an indirect binding ELISA. ELISA plates were coated with 2 μg/ml of […] in 50 mM sodium borate overnight at 4° C. The plates were blocked with 5% bovine serum albumin (BSA) in phosphate buffered saline, pH 7.4 (PBS) and washed with 0.05% Tween 20 in PBS (PBST). A standard curve was prepared by serially diluting AB0041 in PBST to generate a series ranging from 3,000 ng/ml to 1.5 ng/ml. Serum samples were diluted at least 1:100 in PBST then added to the pre-coated ELISA plate. After one-hour incubation, the plates were washed and polyclonal goat-anti mouse IgG-HRP detection antibody (Thermo Scientific, Fair Lawn, N.J.) was added to the plate at 1:10,000 dilution in 0.5% BSA/PBS. The plates were washed and signal was detected by addition of 3,3′,5,5′-tetramethylbenzidine (TMB) (Sigma Aldrich, St. Louis, Mo.) for 2 minutes. The reaction was stopped by addition of 1M hydrochloric acid (HCl) and absorbance at 450 nm was measured. AB0041 levels in serum were back-calculated using a four-parameter curve fit in the SoftMax software package (Molecular Devices).
molecule,measurement,setting,value
B1,animals surviving,[1],70%
same,inflammation and joint damage,adjuvant arthritis (AIA),efficacious
same,binding and inhibitory properties,MMP9,equivalent binding and inhibitory properties
same,H&E staining of hind knee joints,Lewis rats,No synovitis or fibrosis was observed
same,average MSS score,Lewis rats,zero
same,histopathology of primary organs (H&E),Lewis rats,No treatment-related abnormalities were observed
same,"rats with slight limping, avoidance of one hind foot (gait score=1)",Lewis rats,No symptoms were detected
same,serum chemistry panel,Lewis rats,within normal ranges
same,signs of MSS,"Lewis rats; iv, 50 mg/kg",No signs of MSS
same,donors in which a response was induced,"CD4+ T cell; CD4+ T cell response, 20 healthy donors of various HLA haplotypes",20%
same,magnitude of response,CD4+ T cell; mean+/−standard deviation,2.29+/−0.36
same,"soft tissue disease, joint damage and destruction (histology)",[2]; 50 mg/kg,"reduced all measures of soft tissue diseases, joint damage and destruction"
same,CD68 score by IHC,"[2]; 50 mg/kg, compared to vehicle",significant reduction
same,TNF-alpha score by IHC,"[2]; 50 mg/kg, compared to vehicle",significant reduction
same,arthritis clinical scores,"[2]; 50, 10 and 2 mg/kg twice per week (4 doses)",reduced arthritis clinical scores
same,"qualitative and quantitative measurements of clinical disease (paw swelling, ankle diameter, body weight)","[2]; all doses (2, 10, 50 mg/Kg)",significant reversal/mitigation
same,"serum levels of TNFα, IL-6 and IL-17A",[2]; end of study,efficacious in reducing serum levels
same,"serum markers (TIMP-1, GM-CSF, MIP-2, MIP-1β, M-CSF-1, OSM, CXCL10, MCP-5, IL-12p70, INF-γ, IL-12, IL-7)","[2]; terminal serum, ELISA",statistically significant reduction
same,mean steady-state serum levels,[3],2 to 4 mg/mL
